For orientation: EC50 means the concentration at which the effect is half-maximal. Higher therefore signals a less potent agent.

The experiment concerns the target human fibrinogen (human) (UniProt P02671). The experiment in a line: ELISA. Background: In an ELISA, binding on a coated surface is turned into a signal by an enzyme label.

Take “recombinant gain-of-function (GOF) A1(R1450E)A2A3 mutant of VWF (domain or fragment)”: the EC50 was determined as 63 nM.

In the case of “recombinant wild-type A1A2A3 (WT) domains protein of VWF (domain or fragment)”, the EC50 is 87 nM.
